According to article PMC2583361 (Critical reviews in biochemistry and molecular biology, 2008):
Like-named read-outs stand apart in the source and are kept apart here.

Columns and labels:
Test in all cases: ITC
[1] = target: T1, Escherichia coli single-stranded DNA binding protein (SSB) (E. coli, UniProt P0AGE0 1-178)
[2] = target: T1, Escherichia coli single-stranded DNA …; remark: listed apart in the source
[3] = target: T1, Escherichia coli single-stranded DNA …; remark: listed apart in the source
[4] = target: T1, Escherichia coli single-stranded DNA …; remark: listed apart in the source

T1 sequence (P0AGE0 whole entry): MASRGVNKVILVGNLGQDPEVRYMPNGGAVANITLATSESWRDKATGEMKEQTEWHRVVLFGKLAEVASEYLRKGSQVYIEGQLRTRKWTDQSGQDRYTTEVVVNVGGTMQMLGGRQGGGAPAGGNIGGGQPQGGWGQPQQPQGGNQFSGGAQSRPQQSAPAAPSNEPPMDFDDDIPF

B1: PriA DNA helicase (enzyme, E. coli, UniProt P17888 1-732, looked up)
chain: MPVAHVALPVPLPRTFDYLLPEGMTVKAGCRVRVPFGKQQERIGIVVSVSDASELPLNELKAVVEVLDSEPVFTHSVWRLLLWAADYYHHPIGDVLFHALPILLRQGRPAANAPMWYWFATEQGQAVDLNSLKRSPKQQQALAALRQGKIWRDQVATLEFNDAALQALRKKGLCDLASETPEFSDWRTNYAVSGERLRLNTEQATAVGAIHSAADTFSAWLLAGVTGSGKTEVYLSVLENVLAQGKQALVMVPEIGLTPQTIARFRERFNAPVEVLHSGLNDSERLSAWLKAKNGEAAIVIGTRSALFTPFKNLGVIVIDEEHDSSYKQQEGWRYHARDLAVYRAHSEQIPIILGSATPALETLCNVQQKKYRLLRLTRRAGNARPAIQHVLDLKGQKVQAGLAPALITRMRQHLQADNQVILFLNRRGFAPALLCHDCGWIAECPRCDHYYTLHQAQHHLRCHHCDSQRPVPRQCPSCGSTHLVPVGLGTEQLEQTLAPLFPGVPISRIDRDTTSRKGALEQQLAEVHRGGARILIGTQMLAKGHHFPDVTLVALLDVDGALFSADFRSAERFAQLYTQVAGRAGRAGKQGEVVLQTHHPEHPLLQTLLYKGYDAFAEQALAERRMMQLPPWTSHVIVRAEDHNNQHAPLFLQQLRNLILSSPLADEKLWVLGPVPALAPKRGGRWRWQILLQHPSRVRLQHIINGTLALINTIPDSRKVKWVLDVDPIEG
In the case of B1, the dH [1] is reported as -28.7 kcal/mol, the “stoichiometry N” value [1] is reported as 5.2 and the dH [2] is reported as -5.1 kcal/mol. For the same binder, the “stoichiometry N” value [2] was 3.7, the dH [3] was -6.8 kcal/mol and the “stoichiometry N” value [3] was 4.6. For the same binder, the dH [4] was -28 kcal/mol and the “stoichiometry N” value [4] was 1.7.
